The results in this text go back to article PMC3751857.

The assay has as its target Gag of the HIV-1 YP- mutant (HIV-1 (pNL4-3)).

Regarding “Flag-DUb-TSG101 (from UniProt P10220 15-260)”, the release of HIV-1 YP- virus from 293T cells co-expressing Flag-DUb-TSG101 (Figure 2A, lane 3); inactive DUb*-TSG101 and DUb-TSG101 M95A had no effect is greater than 95%.
